The values that follow come from US20170014494.

This series concerns flag-tagged SUMO1.
Chain of flag-tagged SUMO1 (chain, as listed by the source): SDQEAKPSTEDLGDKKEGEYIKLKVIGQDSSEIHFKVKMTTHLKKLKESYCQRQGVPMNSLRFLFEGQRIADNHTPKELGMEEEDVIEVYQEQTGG

On to “SERCA2a wild type (WT), expressed from a plasmid in HEK293 cells”, for which the “Vmax of Ca2+-dependent ATPase activity of WT SERCA2a with co-expression of SUMO1” value worked out at 98.58 ± 1.83 nmol/min/mg.
